From patent publication CN110684105A

Target: 重组HSP90蛋白 (recombinant HSP90 protein expressed in E. coli BL21 from pET-30a-HSP90) (human) (UniProt P08238)
Experiment: indirect ELISA, HSP90 recombinant protein coated at 1 μg/mL, antibody diluted 1:10^3 to 1:10^6, HRP goat anti-mouse

B1: 抗HSP90单克隆抗体 46-2-C9 (anti-HSP90 monoclonal antibody from hybridoma 46-2-C9, purified from mouse ascites) (antibody, V domains shown)
VH: EVQLQQSGPELVKPGASVKISCKASGYSFTGYYMHWVKQSHVKSLEWIGRINPYNGATSYNQNFKDKASLTVDKSSSTAYMELHSLTSEDSAVYYCARSKKYGNYTWFAYWGQGTLVTVSA
VL: DVQMTQSQKFMSTSVGDRVSVTCKASQNVGTNVAWYQQKPGQSPKALIYSASYRYSGVPDRFTGSGSGTDFTLTISNVQSEDLAEYFCQQYNSYIFTFGSGTKLEIKR
- 效价 (ELISA titer, dilution factor) (dilution factor): 100000
